Laboratory results published in patent US20180177842A1 (CANIMGUIDE THERAPEUTICS, published 2018).
Ends that are not written are not given here.

T1: His-tagged P3028 (human, also: His tag, length and end not given here)
T1 construct: in solution at 0.5 ug/mL, detected with mouse anti-His antibody and rabbit anti-mouse peroxidase (rampo); also called PGE73; His-tag-P3028; not shown: His tag
T1 peptide: VFDEFKPLVEEPQNLIK


What follows are binders tested against Artificial Cell Surface (ACS): biotinylated cell surface proteins of human PBMCs bound to a streptavidin column (human) (assay: adsorption on ACS column, MALDI-TOF ms).

Row | Binder | Percent Absorbed
1 | QEPERNECFLQHK (not fully specified) [Trypsin-generated albumin fragment, SEQ ID NO 211] | 18%
2 | FQNALLVR [Trypsin-generated albumin fragment, SEQ ID NO 199] | 41%
3 | SLHTLFGDK [Trypsin-generated albumin fragment, SEQ ID NO 200] | 36%
4 | KLCTVATLRETYGEMADCCAKQEPERNECFLQHK [Asp-N-generated albumin fragment, SEQ ID NO 224] | 100%
5 | LDELRDEGK [Trypsin-generated albumin fragment, SEQ ID NO 215] | 2%
6 | DKLCTVATLRETYGEM [Asp-N-generated albumin fragment, SEQ ID NO 222] | 65%
7 | YLYEIAR [Trypsin-generated albumin fragment, SEQ ID NO 203] | 34%
8 | FKDLGEENFK [Trypsin-generated albumin fragment, SEQ ID NO 213] | 8%
9 | LKECCEKPLLEK [Trypsin-generated albumin fragment, SEQ ID NO 201] | 36%
10 | RPCFSALEVDETYVPK [Trypsin-generated albumin fragment, SEQ ID NO 198] | 42%
11 | QEPERNECFLQHK (not fully specified) [Trypsin-generated albumin fragment, SEQ ID NO 207] | 25%
12 | DSISSKLKECCEKPLLEKSHCIAEVEN [Asp-N-generated albumin fragment, SEQ ID NO 221] | 65%
13 | DHVKLVNEVTEFAKTCVA [Asp-N-generated albumin fragment, SEQ ID NO 217] | 100%
14 | AAFTECCQAADK [Trypsin-generated albumin fragment, SEQ ID NO 205] | 29%
15 | RVTKCCTESLVNRRPCFSALEVDETYVPKEFNAETFTFHA [Asp-N-generated albumin fragment, SEQ ID NO 229] | 100%
16 | VHTECCHGDLLECADDR [Trypsin-generated albumin fragment, SEQ ID NO 212] | 13%
17 | KVPQVSTPTLVEVSR [Trypsin-generated albumin fragment, SEQ ID NO 195] | 64%
18 | LCTVATLR [Trypsin-generated albumin fragment, SEQ ID NO 202] | 35%

Row | Binder | Percent Absorbed
19 | VFLGMFLYEYARRHPDYSVVLLLRLAKTYETTLEKCCAAA [Asp-N-generated albumin fragment, SEQ ID NO 227] | 100%
20 | LGEENFKALVLIAFAQYLQQCPFEDHVKLVNEVTEFAKTCVA [Asp-N-generated albumin fragment, SEQ ID NO 228] | 100%
21 | YICENQDSISSK [Trypsin-generated albumin fragment, SEQ ID NO 214] | 3%
22 | VPQVSTPTLVEVSR [Trypsin-generated albumin fragment, SEQ ID NO 197] | 59%
23 | DDNPNLPR [Trypsin-generated albumin fragment, SEQ ID NO 216] | 1%
24 | DRVTKCCTESLVNRRPCFSALEV [Asp-N-generated albumin fragment, SEQ ID NO 219] | 87%
25 | AVMDDFAAFVEK [Trypsin-generated albumin fragment, SEQ ID NO 208] | 23%
26 | VFDEFKPLVEEPQNLIK [Trypsin-generated albumin fragment, SEQ ID NO 196] | 60%
27 | CCTESLVNR [Trypsin-generated albumin fragment, SEQ ID NO 206] | 26%
28 | KYLYEIAR [Trypsin-generated albumin fragment, SEQ ID NO 194] | 71%
29 | DETYVPKEFNAETFTHA [Asp-N-generated albumin fragment, SEQ ID NO 220] | 86%
30 | ICTLSEKERQIKKQTALVELVKHKPKATKEQLKAVM [Asp-N-generated albumin fragment, SEQ ID NO 225] | 100%
31 | DDKETCFAEEGKKLVAASQAALGL [Asp-N-generated albumin fragment, SEQ ID NO 218] | 100%
32 | CCAAADPHECYAK [Trypsin-generated albumin fragment, SEQ ID NO 204] | 32%
33 | LAKYICENQDSISSKLKECCEKPLLEKHCIAEVEN [Asp-N-generated albumin fragment, SEQ ID NO 226] | 100%
34 | NECFLQHK [Trypsin-generated albumin fragment, SEQ ID NO 209] | 22%
35 | YSVVLLLRLAKTYETTLEKCCAAADPHECYAKVF [Asp-N-generated albumin fragment, SEQ ID NO 223] | 100%

Molecular target: T1, His-tagged P3028
Test: PEPSCAN ELISA, peptide on chip;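 note: binding detected by peroxidase ELISA with ABTS, OD405 colour imaged by CCD camera before and after staining, raw OD405 reported as rampo units, air-bubble wells scored 0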
Procedure: After washing, the peroxidase substrate 2,2′-azine-di-3-ethylbenzthiazoline sulfonate (ABTS) and 2 μL of 3% H2O2 were added. The binding capacity of the mAb was measured as a color development at 405 nm (optical density, OD405). The color development was quantified with a charge-coupled device (CCD)—camera and an image processing system.
The OD405-values obtained by a CCD-camera was considered as raw data values (“rampo values,” “rampo units,” or “rampo scores”). […] First the CCD-camera made a picture of the card before peroxidase coloring and then again a picture after the peroxidase coloring. […] These values were copied into an excel file and labeled as a raw data file. […] Sometimes a well can contain an air-bubble resulting in a false-positive value. If manual inspection of the cards detect an air-bubble the value are set to 0 for well.

Row | Binder | RAMPO Score
36 | KKLDTFFVKLSLATER [SEQ ID NO 361] | 525 rampo units
37 | KKLDTFFVKLSLFTEK [SEQ ID NO 389] | 291 rampo units
38 | KKLDTFFVKLSLQTER [SEQ ID NO 370] | 1140 rampo units
39 | KKLDTFFVKLSLFWER [SEQ ID NO 386] | 374 rampo units
40 | KKLDTFFVKLSLFNER [SEQ ID NO 382] | 599 rampo units
41 | KKLDTFFVKLSLVTER [SEQ ID NO 374] | 446 rampo units
42 | KKLDTFFVKLSLFHER [SEQ ID NO 378] | 463 rampo units
43 | KKLDTFFVKLSLNTER [SEQ ID NO 368] | 862 rampo units
44 | KKLDTFFVKLSLFSER [SEQ ID NO 384] | 369 rampo units
45 | KKLDTFFVKLSLFMER [SEQ ID NO 381] | 501 rampo units
46 | KKLDTFFVKLSLRTER [SEQ ID NO 371] | 502 rampo units
47 | KKLDTFFVKLSLPTER [SEQ ID NO 369] | 696 rampo units
48 | KKLDTFFVKLSLFTDR [SEQ ID NO 387] | 404 rampo units
49 | KKLDTFFVKLSLCTER [SEQ ID NO 362] | 400 rampo units
50 | KKLDTFFVKLSLFTET [SEQ ID NO 392] | 292 rampo units
51 | KKLDTFFVKLSLFLER [SEQ ID NO 380] | 360 rampo units
52 | KKLDTFFVKLSLFPER [SEQ ID NO 383] | 551 rampo units

Row | Binder | RAMPO Score
53 | KKLDTFFVKLSLLTER [SEQ ID NO 366] | 448 rampo units
54 | KKLDTFFVKLSLFFER [SEQ ID NO 376] | 348 rampo units
55 | KKLDTFFVKLSLTTER [SEQ ID NO 373] | 494 rampo units
56 | KKLDTFFVKLSLWTER [SEQ ID NO 375] | 430 rampo units
57 | KKLDTFFVKLSLHTER [SEQ ID NO 364] | 1050 rampo units
58 | KKLDTFFVKLSLGTER [SEQ ID NO 363] | 531 rampo units
59 | KKLDTFFVKLSLFTEF [SEQ ID NO 388] | 297 rampo units
60 | KKLDTFFVKLSLFTEY [SEQ ID NO 393] | 311 rampo units
61 | KKLDTFFVKLSLFTEN [SEQ ID NO 390] | 311 rampo units
62 | KKLDTFFVKLSLSTER [SEQ ID NO 372] | 635 rampo units
63 | KKLDTFFVKLSLFGER [SEQ ID NO 377] | 343 rampo units
64 | KKLDTFFVKLSLFVER [SEQ ID NO 385] | 380 rampo units
65 | KKLDTFFVKLSLFIER [SEQ ID NO 379] | 375 rampo units
66 | KKLDTFFVKLSLITER [SEQ ID NO 365] | 468 rampo units
67 | KKLDTFFVKLSLMTER [SEQ ID NO 367] | 1190 rampo units
68 | KKLDTFFVKLSLFTER [SEQ ID NO 391] | 260 rampo units
